Results from patent US20190247312A1, “PHARMACEUTICAL PREPARATION FOR DELIVERY OF PEPTIDES AND PROTEINS” (priority 2016, published 2019).

Experiments:
[1] = Pharmacokinetics of orally dosed insulin emulsion particles in STZ-treated rats (Example 3), plasma insulin; details: 5 IU/kg s.c. control
Description: Parameters were estimated using Watson pharmacokinetic software 7.4.2 (Thermo Electron Corporation) using a non-compartmental approach consistent with the various routes of administration. All parameters were generated from Insulin individual animal concentrations in plasma. Parameters were estimated using nominal sampling times to be relative to the start of each dose administration (within an acceptable tolerance limit).
The area under the test item concentration versus time curve (AUC) was calculated using the linear-log linear trapezoidal method. AUC was not calculated for PK profiles with less than 3 consecutive quantifiable concentrations of test article at separate time points. When practical, the terminal elimination phase of each concentration versus time curve was identified using at least the final three observed concentration values. The slope of the terminal elimination phase was determined using linear regression on the unweighted concentration data. […] The parameters described below were reported to 3 significant figures.

[2] = tested on: blood glucose; experiment: Blood glucose after dosing in STZ type I diabetes model (Example 5); assay type: in vivo, Sprague-Dawley(SD) rats; details: 5 IU/kg s.c. control
[3] = in 0.01N HCl; cited from earlier work
[4] = tested on: blood glucose; experiment: Blood glucose after dosing in STZ type I diabetes model (Example 3); assay type: in vivo, Sprague-Dawley(SD) rats; details: 5 IU/kg s.c. control
Description: Animals were monitored for blood glucose levels daily over 10 days using a handheld glucometer to verify the disruption of insulin production. […] Prior to the experimental procedure, animals were weighed and randomized into groups based on body weight. All rats were then fasted for five hours prior to dosing.
Control animals were given 5 IU/kg s.c. or 2.5 IU/kg i.v., while experimental animals were dosed orally with 50 IU/kg of microemulsion particles. Food was returned immediately post-dosage and blood was collected at the indicated time points (15, 30, 30, 60, 90, 120, 150, 180, 210, 240, 270, 300, 480, 720, and 1440) over a 24 hr. period. Whole blood was processed to plasma and analyzed for insulin quantity.
Mean insulin and glucose concentrations from the blood of animals were assessed following dosing of 5 IU/kg subcutaneous insulin, 50 IU/kg per os (p.o., i.e., orally) administered TA-3 (BCC with zinc), 50 IU/kg p.o. administered TA-4 (zinc without BCC), and 50 IU/kg p.o. administered TA-7 (BCC without zinc).

Substance: insulin
- blood insulin levels after s.c. administration [1]: rapid appearance and peak of insulin in the blood
- blood glucose concentrations after s.c. injection [2]: drop in blood glucose concentrations beginning just as insulin is detected in the blood
- solubility [3]: 20 mg/mL
- blood glucose after s.c. administration [4]: corresponding declines in blood glucose
